Results: publication PMC11077950

Legend:
[1] = target: T1, NfxB T39R T51R (Pseudomonas aeruginosa PAO1) (UniProt P32265); test: EMSA; settings: EMSA: PBS (137 mM NaCl, 2.7 mM KCl, 8 mM Na2HPO4, 2 mM KH2PO4), 2 uL glycerin in 20 uL, 80 ng DNA, 5-70 pmol protein, 25 C, 30 min, SPR: PBS, 30 uL/min …
T1 sequence: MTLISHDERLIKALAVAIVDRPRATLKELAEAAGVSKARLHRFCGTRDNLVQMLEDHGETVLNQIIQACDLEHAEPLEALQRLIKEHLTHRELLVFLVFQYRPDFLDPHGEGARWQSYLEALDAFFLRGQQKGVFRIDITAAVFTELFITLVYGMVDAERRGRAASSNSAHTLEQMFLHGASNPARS

[2] = test system: TNfxB3; test: SPR; settings: EMSA: PBS (137 mM NaCl, 2.7 mM KCl, 8 mM Na2HPO4, 2 mM KH2PO4), 2 uL glycerin in 20 uL, 80 ng DNA, 5-70 pmol protein, 25 C, 30 min, 30 uL/min …

Sequence	binding [1]	Kd [2]
CTCATCGGCAGCAGTTAAATCCATCGGTCACTCTTTATCTATCGCGGGCAGATGCGGGTATTTTGCCTAGAACACTCATTTTTCTCAAAGAGGATACTAGCTTTGTTCACACCAAAATCAAATGAGTCAATATTGACTTATTTGATTTTTGCGTGGATCATGCGCGGCTTCGACTACGTACTGGCTTCGTGCTTGGGTGAGATATGAACAAATTCCGCGAATGGATCAC (double strand) [tnfxB1-tmexC1 intergenic DNA (PtmexC1), EMSA]	binds more weakly	
ATACTAGCTTTGTTCACACCAAAATCAAATGAGTCAATATTGACTTATTTGATTTTTGCGTGGATCATGCGCGGCTTCGAC (double strand) [SPR operator DNA with two inverted repeats, 81 bp]		917 nM
